The text below walks through data of publication PMC8092224.

This assay addresses H. pylori-bullfrog recombinant ferritin (ferritin nanoparticle) (bullfrog (Rana catesbeiana) | Helicobacter pylori). In words: SEC; concentrated supernatant (100-kDa MWCO TFF) on Superdex 200 Increase 10/300 GL, degassed PBS, 0.4 ml/min; size from LMW/HMW calibration standards; self-assembly of the monomer into the nanoparticle. In general terms: SEC sorts molecules by how far they enter the pores of the column.

The stoichiometry N is a count of units in the complex or per binding partner. Regarding “H. pylori-bullfrog recombinant ferritin (ferritin nanoparticle)”, the stoichiometry N amounted to 24.
